Experimental data as given in patent US6017871A, “Protease-containing cleaning compositions” (The Procter & Gamble Company, priority 1997, dated 2000).
Numbered stars: 1 amine (or outer) side, 2 acyl side, 3 side chain; on linkers, the order of the positions; unused ones are H or OH. Peptide text beside a SMILES is read from it. * marks the point of attachment. pNA = O=[N+]([O-])c1ccc(N*)cc1; Suc = O=C(CCC(=O)[*:2])[*:1]

T1: Bacillus lentus subtilisin (GG36), wild type, Seq. ID No.10 (Lederbergia lenta, UniProt P29600)
T1 construct: The mature subtilisin protein is coded by the codons beginning at the codon GCG (334-336) corresponding to Ala; made in house; host or cells: Bacillus subtilis
T1 sequence (P29600 1-269): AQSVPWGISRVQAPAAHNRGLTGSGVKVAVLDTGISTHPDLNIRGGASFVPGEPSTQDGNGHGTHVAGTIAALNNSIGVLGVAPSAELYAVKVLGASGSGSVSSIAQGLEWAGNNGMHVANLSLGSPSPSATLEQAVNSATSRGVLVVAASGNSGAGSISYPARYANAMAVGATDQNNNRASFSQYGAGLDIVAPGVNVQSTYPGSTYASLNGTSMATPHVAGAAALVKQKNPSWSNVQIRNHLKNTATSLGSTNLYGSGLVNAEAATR


Assays:
Assay in all cases: Kinetic parameters for hydrolysis of synthetic peptide substrate
[1] = target: T1, Bacillus lentus subtilisin (GG36), wild type, Seq. ID No.10; format: biochemical; conditions: Table III; 0.1 M Tris-HCL buffer, pH 8.6, 25° C.
Method: (§1) The kinetic parameters kcat, KM, and kcat KM are measured for hydrolysis of the synthetic peptide substrate succinyl-L-Ala-L-Ala-L-Pro-L-Phe-p-nitroanilide using the method described in P. Bonneau et al. (1991) J. Am. Chem. Soc., Vol. 113, No. 3, p. 1030. Briefly, a small aliquot of subtilisin variant stock solution is added to a 1 cm cuvette containing substrate dissolved in 0.1 M Tris-HCL buffer, pH 8.6, and thermostated at 25° C. The reaction progress is followed spectrophotometrically by monitoring the absorbance of the reaction product p-nitroaniline at 410 nm. Kinetic parameters are obtained by using a non-linear regression algorithm to fit the reaction velocity and product concentration for each reaction to the Michaelis-Menten equation.
(§2) Numerous variants are made as per the teachings of these Protease Manufacture Examples. Kinetics data and stability data are generated for such variants. The kinetics data are generated using the methods described hereinbefore and are provided in Table V. The stability data are generated as detailed herein.

[2] = target: T2, B. amyloliquefaciens subtilisin (BPN'), wild type, Seq. ID No.7 (Bacillus amyloliquefaciens, UniProt P00782); format: biochemical; conditions: Table V; 0.1 M Tris-HCL buffer, pH 8.6, 25° C.
T2 construct: made in house; host or cells: protease-deficient Bacillus subtilis
Method: as §1, §2

[3] = substrate: C[C@H](NC(=O)CCC(=O)O)C(=O)N[C@@H](C)C(=O)N1CCC[C@H]1C(=O)N[C@@H](Cc1ccccc1)C(=O)Nc1ccc([N+](=O)[O-])cc1; format: biochemical, Bacillus lentus; conditions: other: Table III, 0.1 M Tris-HCL buffer, pH 8.6, 25° C.
Method: as §1, §2

[4] = substrate: C[C@H](NC(=O)CCC(=O)O)C(=O)N[C@@H](C)C(=O)N1CCC[C@H]1C(=O)N[C@@H](Cc1ccccc1)C(=O)Nc1ccc([N+](=O)[O-])cc1; format: biochemical, Bacillus lentus; conditions: other: Table III, 0.1 M Tris-HCL buffer, pH 8.6, 25° C.; remark: listed apart in the source
Method: as §1

[5] = substrate: C[C@H](NC(=O)CCC(=O)O)C(=O)N[C@@H](C)C(=O)N1CCC[C@H]1C(=O)N[C@@H](Cc1ccccc1)C(=O)Nc1ccc([N+](=O)[O-])cc1; format: biochemical, Bacillus amyloliquefaciens; conditions: other: Table V, 0.1 M Tris-HCL buffer, pH 8.6, 25° C.
Method: as §1, §2

T2 sequence (P00782 108-382): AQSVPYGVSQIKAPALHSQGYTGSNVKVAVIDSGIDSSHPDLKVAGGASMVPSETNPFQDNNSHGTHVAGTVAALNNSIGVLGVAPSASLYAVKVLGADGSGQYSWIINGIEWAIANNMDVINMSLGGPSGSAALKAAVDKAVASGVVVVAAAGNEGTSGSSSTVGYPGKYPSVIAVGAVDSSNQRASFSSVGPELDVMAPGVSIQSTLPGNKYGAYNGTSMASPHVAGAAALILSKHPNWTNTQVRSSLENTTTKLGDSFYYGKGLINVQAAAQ

Molecule	Km [4] [µM]	kcat [4] [s⁻¹]	kcat/Km [4] [M⁻¹ s⁻¹]	also measured
C[C@H](NC(=O)CCC(=O)O)C(=O)N[C@@H](C)C(=O)N1CCC[C@H]1C(=O)N[C@@H](Cc1ccccc1)C(=O)Nc1ccc([N+](=O)[O-])cc1 [succinyl-L-Ala-L-Ala-L-Pro-L-Phe-p-nitroanilide] (Suc-AAPF-pNA)				kcat/KM [1]: 218000 M⁻¹ s⁻¹; kcat [2]: 50 s⁻¹; kcat/KM [2]: 3.60E + 05 s^-1 M^-1
Bacillus lentus subtilisin (GG36), wild type, Seq. ID No.10 (Lederbergia lenta) (protein, The mature subtilisin protein is coded by the codons beginning at the codon GCG (334-336) corresponding to Ala; made in house; host or cells: Bacillus subtilis) AQSVPWGISRVQAPAAHNRGLTGSGVKVAVLDTGISTHPDLNIRGGASFVPGEPSTQDGNGHGTHVAGTIAALNNSIGVLGVAPSAELYAVKVLGASGSGSVSSIAQGLEWAGNNGMHVANLSLGSPSPSATLEQAVNSATSRGVLVVAASGNSGAGSISYPARYANAMAVGATDQNNNRASFSQYGAGLDIVAPGVNVQSTYPGSTYASLNGTSMATPHVAGAAALVKQKNPSWSNVQIRNHLKNTATSLGSTNLYGSGLVNAEAATR				Km [3]: 780 µM; kcat [3]: 170 s⁻¹; kcat/Km [3]: 2.20E + 05 s^-1 M^-1
Bacillus lentus subtilisin variant N76D (Lederbergia lenta; N74D) (protein, The mature subtilisin protein is coded by the codons beginning at the codon GCG (334-336) corresponding to Ala; made in house; host or cells: Bacillus subtilis) AQSVPWGISRVQAPAAHNRGLTGSGVKVAVLDTGISTHPDLNIRGGASFVPGEPSTQDGNGHGTHVAGTIAALDNSIGVLGVAPSAELYAVKVLGASGSGSVSSIAQGLEWAGNNGMHVANLSLGSPSPSATLEQAVNSATSRGVLVVAASGNSGAGSISYPARYANAMAVGATDQNNNRASFSQYGAGLDIVAPGVNVQSTYPGSTYASLNGTSMATPHVAGAAALVKQKNPSWSNVQIRNHLKNTATSLGSTNLYGSGLVNAEAATR	800	219	274000	
Bacillus lentus subtilisin variant N76D/S99D (Protease #1) (Lederbergia lenta; N74D/S97D) (protein, The mature subtilisin protein is coded by the codons beginning at the codon GCG (334-336) corresponding to Ala; made in house; host or cells: Bacillus subtilis) AQSVPWGISRVQAPAAHNRGLTGSGVKVAVLDTGISTHPDLNIRGGASFVPGEPSTQDGNGHGTHVAGTIAALDNSIGVLGVAPSAELYAVKVLGADGSGSVSSIAQGLEWAGNNGMHVANLSLGSPSPSATLEQAVNSATSRGVLVVAASGNSGAGSISYPARYANAMAVGATDQNNNRASFSQYGAGLDIVAPGVNVQSTYPGSTYASLNGTSMATPHVAGAAALVKQKNPSWSNVQIRNHLKNTATSLGSTNLYGSGLVNAEAATR	610	88	144000	
Bacillus lentus subtilisin variant N76D/S101R (Protease #2) (Lederbergia lenta; N74D/S99R) (protein, The mature subtilisin protein is coded by the codons beginning at the codon GCG (334-336) corresponding to Ala; made in house; host or cells: Bacillus subtilis) AQSVPWGISRVQAPAAHNRGLTGSGVKVAVLDTGISTHPDLNIRGGASFVPGEPSTQDGNGHGTHVAGTIAALDNSIGVLGVAPSAELYAVKVLGASGRGSVSSIAQGLEWAGNNGMHVANLSLGSPSPSATLEQAVNSATSRGVLVVAASGNSGAGSISYPARYANAMAVGATDQNNNRASFSQYGAGLDIVAPGVNVQSTYPGSTYASLNGTSMATPHVAGAAALVKQKNPSWSNVQIRNHLKNTATSLGSTNLYGSGLVNAEAATR	1300	371	285000	
Bacillus lentus subtilisin variant N76D/S103A (Protease #3) (Lederbergia lenta; N74D/S101A) (protein, The mature subtilisin protein is coded by the codons beginning at the codon GCG (334-336) corresponding to Ala; made in house; host or cells: Bacillus subtilis) AQSVPWGISRVQAPAAHNRGLTGSGVKVAVLDTGISTHPDLNIRGGASFVPGEPSTQDGNGHGTHVAGTIAALDNSIGVLGVAPSAELYAVKVLGASGSGAVSSIAQGLEWAGNNGMHVANLSLGSPSPSATLEQAVNSATSRGVLVVAASGNSGAGSISYPARYANAMAVGATDQNNNRASFSQYGAGLDIVAPGVNVQSTYPGSTYASLNGTSMATPHVAGAAALVKQKNPSWSNVQIRNHLKNTATSLGSTNLYGSGLVNAEAATR	1400	400	286000	
Bacillus lentus subtilisin variant N76D/V104I (Protease #4) (Lederbergia lenta; N74D/V102I) (protein, The mature subtilisin protein is coded by the codons beginning at the codon GCG (334-336) corresponding to Ala; made in house; host or cells: Bacillus subtilis) AQSVPWGISRVQAPAAHNRGLTGSGVKVAVLDTGISTHPDLNIRGGASFVPGEPSTQDGNGHGTHVAGTIAALDNSIGVLGVAPSAELYAVKVLGASGSGSISSIAQGLEWAGNNGMHVANLSLGSPSPSATLEQAVNSATSRGVLVVAASGNSGAGSISYPARYANAMAVGATDQNNNRASFSQYGAGLDIVAPGVNVQSTYPGSTYASLNGTSMATPHVAGAAALVKQKNPSWSNVQIRNHLKNTATSLGSTNLYGSGLVNAEAATR	1100	459	417000	
Bacillus lentus subtilisin variant N76D/I107V (Protease #5) (Lederbergia lenta; I105V/N74D) (protein, The mature subtilisin protein is coded by the codons beginning at the codon GCG (334-336) corresponding to Ala; made in house; host or cells: Bacillus subtilis) AQSVPWGISRVQAPAAHNRGLTGSGVKVAVLDTGISTHPDLNIRGGASFVPGEPSTQDGNGHGTHVAGTIAALDNSIGVLGVAPSAELYAVKVLGASGSGSVSSVAQGLEWAGNNGMHVANLSLGSPSPSATLEQAVNSATSRGVLVVAASGNSGAGSISYPARYANAMAVGATDQNNNRASFSQYGAGLDIVAPGVNVQSTYPGSTYASLNGTSMATPHVAGAAALVKQKNPSWSNVQIRNHLKNTATSLGSTNLYGSGLVNAEAATR	1100	219	199000	
Bacillus lentus subtilisin variant N76D/N123S (Protease #6) (Lederbergia lenta; N121S/N74D) (protein, The mature subtilisin protein is coded by the codons beginning at the codon GCG (334-336) corresponding to Ala; made in house; host or cells: Bacillus subtilis) AQSVPWGISRVQAPAAHNRGLTGSGVKVAVLDTGISTHPDLNIRGGASFVPGEPSTQDGNGHGTHVAGTIAALDNSIGVLGVAPSAELYAVKVLGASGSGSVSSIAQGLEWAGNNGMHVASLSLGSPSPSATLEQAVNSATSRGVLVVAASGNSGAGSISYPARYANAMAVGATDQNNNRASFSQYGAGLDIVAPGVNVQSTYPGSTYASLNGTSMATPHVAGAAALVKQKNPSWSNVQIRNHLKNTATSLGSTNLYGSGLVNAEAATR	1800	115	64000	
Bacillus lentus subtilisin variant N76D/S99D/S101R (Protease #7) (Lederbergia lenta; N74D/S97D/S99R) (protein, The mature subtilisin protein is coded by the codons beginning at the codon GCG (334-336) corresponding to Ala; made in house; host or cells: Bacillus subtilis) AQSVPWGISRVQAPAAHNRGLTGSGVKVAVLDTGISTHPDLNIRGGASFVPGEPSTQDGNGHGTHVAGTIAALDNSIGVLGVAPSAELYAVKVLGADGRGSVSSIAQGLEWAGNNGMHVANLSLGSPSPSATLEQAVNSATSRGVLVVAASGNSGAGSISYPARYANAMAVGATDQNNNRASFSQYGAGLDIVAPGVNVQSTYPGSTYASLNGTSMATPHVAGAAALVKQKNPSWSNVQIRNHLKNTATSLGSTNLYGSGLVNAEAATR	380	146	384000	
B. amyloliquefaciens subtilisin (BPN') variant BPN'-N76D/Y217L (Bacillus amyloliquefaciens; N183D/Y324L) (protein, made in house; host or cells: protease-deficient Bacillus subtilis) AQSVPYGVSQIKAPALHSQGYTGSNVKVAVIDSGIDSSHPDLKVAGGASMVPSETNPFQDNNSHGTHVAGTVAALDNSIGVLGVAPSASLYAVKVLGADGSGQYSWIINGIEWAIANNMDVINMSLGGPSGSAALKAAVDKAVASGVVVVAAAGNEGTSGSSSTVGYPGKYPSVIAVGAVDSSNQRASFSSVGPELDVMAPGVSIQSTLPGNKYGALNGTSMASPHVAGAAALILSKHPNWTNTQVRSSLENTTTKLGDSFYYGKGLINVQAAAQ				Km [5]: 460 µM; kcat [5]: 380 s⁻¹; kcat/Km [5]: 8.30E + 05 s^-1 M^-1
